Laboratory results taken from publication PMC2883946.

Key:
14-3-3β = 14-3-3β (UniProt Q9CQV8); assay: FLAG IP, 14-3-3 isoform immunoblot; settings: reference: FLAG-AS160 wild type; sites S318,T568,S588,T642,S751
14-3-3ε = 14-3-3ε (UniProt P62259); assay: FLAG IP, 14-3-3 isoform immunoblot; settings: reference: FLAG-AS160 wild type; sites S318,T568,S588,T642,S751

## FLAG-AS160 (from UniProt O60343) FLAG-AS160 5P
14-3-3β
  binding against the reference: weaker
14-3-3ε
  binding against the reference: weaker
